Test results: CN109750002A

Key:
[1] = molecular target: 人BTN3A3 (Butyrophilin subfamily 3 member A3), membrane form on cells (BT474-BTN3A3 overexpressing cells) (human) (UniProt O00478); experiment: adhesion assay by flow cytometry on BT474-BTN3A3 cells, with 5E08 mixed 1:1 (molar) with LSECtin as blocker
[2] = molecular target: 人BTN3A3 (Butyrophilin subfamily 3 member A3), membrane form on cells (BT474-BTN3A3 overexpressing cells) (human) (UniProt O00478); experiment: adhesion assay by flow cytometry on BT474-BTN3A3 cells, with control human IgG; LSECtin-positive ZSG-positive cells / ZSG-positive cells

Chain of UniProt O00478 (O00478 30-584): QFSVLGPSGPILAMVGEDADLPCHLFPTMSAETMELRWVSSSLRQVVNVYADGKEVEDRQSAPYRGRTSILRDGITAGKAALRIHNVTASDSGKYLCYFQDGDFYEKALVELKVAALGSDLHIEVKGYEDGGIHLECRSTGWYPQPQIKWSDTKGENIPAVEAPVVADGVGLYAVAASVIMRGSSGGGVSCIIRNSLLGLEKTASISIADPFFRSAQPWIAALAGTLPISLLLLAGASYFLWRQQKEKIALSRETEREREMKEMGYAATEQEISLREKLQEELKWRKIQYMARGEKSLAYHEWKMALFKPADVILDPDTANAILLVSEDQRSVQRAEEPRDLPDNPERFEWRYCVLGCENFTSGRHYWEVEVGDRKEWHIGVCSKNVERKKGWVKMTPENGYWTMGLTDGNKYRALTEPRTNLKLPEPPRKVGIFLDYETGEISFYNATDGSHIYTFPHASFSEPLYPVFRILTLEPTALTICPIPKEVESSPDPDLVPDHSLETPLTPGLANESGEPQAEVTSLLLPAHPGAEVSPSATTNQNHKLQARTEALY

B1: LSECtin蛋白 (Liver Sinusoidal Endothelial Cells lectin) (ligand, UniProt Q6UXB4 53-293, looked up)
chain: LSKASTERAALLDGHDLLRTNASKQTAALGALKEEVGDCHSCCSGTQAQLQTTRAELGEAQAKLMEQESALRELRERVTQGLAEAGRGREDVRTELFRALEAVRLQNNSCEPCPTSWLSFEGSCYFFSVPKTTWAAAQDHCADASAHLVIVGGLDEQGFLTRNTRGRGYWLGLRAVRHLGKVQGYQWVDGVSLSFSHWNQGEPNDAWGRENCVMMLHTGLWNDAPCDSEKDGWICEKRHNC
B1 gave an LSECtin粘附率 [1] of 1.4% and an LSECtin粘附率 [2] of 16.1%.
